Data as given in patent US20240400687A1 (Regeneron, published 2024).

T1: mouse PD1 (mPD1) (mouse, UniProt Q02242 25-288)
T1 construct: whole, on cells; also called murine PD1
T1 sequence (looked up): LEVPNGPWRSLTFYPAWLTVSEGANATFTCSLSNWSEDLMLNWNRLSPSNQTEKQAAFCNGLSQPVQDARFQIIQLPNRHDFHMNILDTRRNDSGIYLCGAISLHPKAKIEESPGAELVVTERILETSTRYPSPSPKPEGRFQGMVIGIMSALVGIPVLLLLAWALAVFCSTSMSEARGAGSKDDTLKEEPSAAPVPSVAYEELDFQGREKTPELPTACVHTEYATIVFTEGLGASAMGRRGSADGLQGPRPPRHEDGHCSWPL


Key:
mouse PD1 (mPD1) [1] = biological target: T1, mouse PD1 (mPD1); test: flow cytometry on Jurkat/mPD1 cells
Procedure: Cells (HEK 293, MC38 over-expressing mCD20, or Jurkat over-expressing mPD1) were resuspended in FACS wash (PBS with 1% FBS) at 1×10⁶ cells/mL. The staining was performed in 1×10⁵ cells per well. The antibodies were diluted with a ratio of 1:5 from a starting concentration of 1.3×10⁻⁰⁷ M. The diluted antibodies were then added into the wells containing cells. Cells were stained for 30 min at 2-8° C. and washed twice with FACS wash buffer. APC-conjugated goat anti-human IgG (Jackson Immuno Research, 109-607-003, 1:400) or AF647-conjugated goat anti-mFc Fab (Jackson Immuno Research, 115-607-185, 1:400) was added to stain the cells for 30 min at 2-8° C. Following washing, cells were fixed in 2% paraformaldehyde for 30 min at 2-8° C. After two washes, stained cells were analyzed using BD LSRFortessa™ FACS instrument. The results were analyzed by FlowJo. FSC/SSC gates were used to select mononuclear cells.

mouse PD1 (mPD1) [2] = biological target: T1, mouse PD1 (mPD1); test: cell-based or functional assay

Binder	binding result (mouse PD1 (mPD1) [1])	Max % inhibition, luciferase bioassay, 1 nM CD3 bsAb (mouse PD1 (mPD1) [2])
18B12-scFvFc (scFv, V domains shown) VH: QVQLQQPGAELVRPGTSVKLSCKASGYTFTSYWMHWIKQRPGQGLEWIGVIDPSDNYTKYNQKFKGKATLTVDTSSSTAYMQLSSLTSEDSAVYFCAREGYYGSSPWFAYWGQGTLVTVSS VL: QIVMSQSPAILSASPGEKVTMTCRARSSVSYIHWYQQKPGSSPKPWIYATSNLASGVPGRFSGSGSGTSYSLTITRVEAEDAATYYCQQWSSKPPTFGGGTKLEIK	no binding	–
1B12IgG1EN (antibody, IgG, mCD20 x mCD20, 145.3 kDa; also called Molecule ID M) heavy 1: QVQLQQPGAELVRPGTSVKLSCKASGYTFTSYWMHWIKQRPGQGLEWIGVIDPSDNYTKYNQKFKGKATLTVDTSSSTAYMQLSSLTSEDSAVYFCAREGYYGSSPWFAYWGQGTLVTVSSASTKGPSVFPLAPSSKSTSGGTAALGCLVKDYFPEPVTVSWNSGALTSGVHTFPAVLQSSGLYSLSSVVTVPSSSLGTQTYICNVNHKPSNTKVDKKVEPKSCDKTHTCPPCPAPEAEGAPSVFLFPPKPKDTLMISRTPEVTCVVVDVSHEDPEVKFNWYVDGVEVHNAKTKPREEQYNSTYRVVSVLTVLHQDWLNGKEYKCKVSNKALPSSIEKTISKAKGQPREPQVYTLPPCRDELTKNQVSLWCLVKGFYPSDIAVEWESNGQPENNYKTTPPVLDSDGSFFLYSKLTVDKSRWQQGNVFSCSVMHEALHNHYTQKSLSLSPGK heavy 2: QVQLQQPGAELVRPGTSVKLSCKASGYTFTSYWMHWIKQRPGQGLEWIGVIDPSDNYTKYNQKFKGKATLTVDTSSSTAYMQLSSLTSEDSAVYFCAREGYYGSSPWFAYWGQGTLVTVSSASTKGPSVFPLAPSSKSTSGGTAALGCLVKDYFPEPVTVSWNSGALTSGVHTFPAVLQSSGLYSLSSVVTVPSSSLGTQTYICNVNHKPSNTKVDKKVEPKSCDKTHTCPPCPAPEAEGAPSVFLFPPKPKDTLMISRTPEVTCVVVDVSHEDPEVKFNWYVDGVEVHNAKTKPREEQYNSTYRVVSVLTVLHQDWLNGKEYKCKVSNKALPSSIEKTISKAKGQPREPQVCTLPPSRDELTKNQVSLSCAVKGFYPSDIAVEWESNGQPENNYKTTPPVLDSDGSFFLVSKLTVDKSRWQQGNVFSCSVMHEALHNRFTQKSLSLSPGK light: QIVMSQSPAILSASPGEKVTMTCRARSSVSYIHWYQQKPGSSPKPWIYATSNLASGVPGRFSGSGSGTSYSLTITRVEAEDAATYYCQQWSSKPPTFGGGTKLEIKRTVAAPSVFIFPPSDEQLKSGTASVVCLLNNFYPREAKVQWKVDNALQSGNSQESVTEQDSKDSTYSLSSTLTLSKADYEKHKVYACEVTHQGLSSPVTKSFNRGEC	no binding	19%
